The stoichiometry N is a count of units in the complex or per binding partner.

Here are results for two substances from publication PMC3430366.

Test [1] addresses TDPX1 Cys35Ala (Leishmania major (Friedlin strain)). As to the kind of experiment: SDS-PAGE after reduction or oxidation.
The target of test [2] is TDPX1 Cys83Ala (Leishmania major (Friedlin strain)). Briefly: SDS-PAGE after reduction or oxidation.

Turning to TDPX1 Cys35Ala (enzyme), the stoichiometry N in test [1] is 2.

Consider TDPX1 Cys83Ala (enzyme), for which the stoichiometry N in test [2] came out at 2.
